The source of these data is US20160031992A1.

Assay [1] has as its target integrin αvβ6 on NIH3T3β6 cells (NIH3T3 cells transfected with β6). The experiment in a line: FACS on NIH3T3β6 cells, geometric MFI against antibody concentration.
For the next assay, the target named is biotinylated αvβ6. The experiment in a line: inhibition of biotinylated αvβ6 binding to plate-coated LAP, streptavidin-HRP.

Substitutions are numbered along the chain they refer to.

B1: humanized 1A8 antibody VH1/Vκ1 (antibody, IgG1, V domains shown)
VH: QVQFVQSGPELKKPGASVKVSCKGSSYTFTDYTMHWVKLAHAKTLEWIGVIDTYYGKTNYNQKFEGRATMTVDKSSSTAYMELARLRSEDSAVYYCARGGFRRGDRPSLRYAMDSWGQGTSVTVSS
VL: DIVLTQSPDSLAVSLGERATINCRASQSVSISTYSYIHWFQQKPGQPPKLLIKYASNLESGVPDRFSGSGSGTDFTLNIHPVEEEDVGIYYCQHSWEIPYTFGGGTKVEIK
For B1, the EC50 relative to chimeric antibody (ratio to chimeric antibody) in assay [1] was found to be 1.13. The IC50 relative to chimeric antibody (ratio to chimeric antibody) with biotinylated αvβ6 was found to be 1.02.

B2: humanized 1A8 antibody VH4/Vκ1 (antibody, IgG1, V domains shown)
VH: B1 VH with F4L, P9A, L11V, K38R, H41S, M70I, A84S, R85S, S91T, S121L
VL: B1 VL
Regarding B2, the EC50 relative to chimeric antibody (ratio to chimeric antibody) in assay [1] came out at 3.57. Moreover, the IC50 relative to chimeric antibody (ratio to chimeric antibody) in the assay with biotinylated αvβ6 turned out to be 1.93.

B3: humanized 1A8 antibody VH2/Vκ2 (antibody, IgG1, V domains shown)
VH: B1 VH with F4L, P9A, L11V, H41S, A84S, R85S, S91T, S121L
VL: B1 VL with N78K, H80S, P81R
For the molecule B3, in assay [1], the EC50 relative to chimeric antibody (ratio to chimeric antibody) is 2.4. In the assay with biotinylated αvβ6, the IC50 relative to chimeric antibody (ratio to chimeric antibody) came to 1.32.

B4: humanized 1A8 antibody VH2/Vκ1 (antibody, IgG1, V domains shown)
VH: B1 VH with F4L, P9A, L11V, H41S, A84S, R85S, S91T, S121L
VL: B1 VL
B4: the EC50 relative to chimeric antibody (ratio to chimeric antibody) in assay [1] stood at 3. The IC50 relative to chimeric antibody (ratio to chimeric antibody) with biotinylated αvβ6 was found to be 1.48.

B5: humanized 1A8 antibody VH4/Vκ3 (antibody, IgG1, V domains shown)
VH: B1 VH with F4L, P9A, L11V, K38R, H41S, M70I, A84S, R85S, S91T, S121L
VL: B1 VL with L4M, N78K, H80S, P81R, E84A
With B5, the EC50 relative to chimeric antibody (ratio to chimeric antibody) in assay [1] worked out at 2.96. Moreover, the IC50 relative to chimeric antibody (ratio to chimeric antibody) with biotinylated αvβ6 was 1.74.

B6: humanized 1A8 antibody VH1/Vκ2 (antibody, IgG1, V domains shown)
VH: B1 VH
VL: B1 VL with N78K, H80S, P81R
Regarding B6, the EC50 relative to chimeric antibody (ratio to chimeric antibody) in assay [1] is 1.07. Further, the IC50 relative to chimeric antibody (ratio to chimeric antibody) with biotinylated αvβ6 stood at 1.19.

B7: humanized 1A8 antibody VH3/Vκ1 (antibody, IgG1, V domains shown)
VH: B1 VH with F4L, P9A, L11V, K38R, H41S, A84S, R85S, S91T, S121L
VL: B1 VL
Consider B7, for which the EC50 relative to chimeric antibody (ratio to chimeric antibody) in assay [1] was 2.86. In the assay with biotinylated αvβ6, the IC50 relative to chimeric antibody (ratio to chimeric antibody) was 1.07.

B8: humanized 1A8 antibody VH4/Vκ2 (antibody, IgG1, V domains shown)
VH: B1 VH with F4L, P9A, L11V, K38R, H41S, M70I, A84S, R85S, S91T, S121L
VL: B1 VL with N78K, H80S, P81R
On to B8, for which, in assay [1], the EC50 relative to chimeric antibody (ratio to chimeric antibody) was determined as 3.24. In addition, in the assay with biotinylated αvβ6, the IC50 relative to chimeric antibody (ratio to chimeric antibody) was 2.3.

B9: humanized 1A8 antibody VH3/Vκ3 (antibody, IgG1, V domains shown)
VH: B1 VH with F4L, P9A, L11V, K38R, H41S, A84S, R85S, S91T, S121L
VL: B1 VL with L4M, N78K, H80S, P81R, E84A
Turning to B9, in assay [1], the EC50 relative to chimeric antibody (ratio to chimeric antibody) is 2.41. In the assay with biotinylated αvβ6, the IC50 relative to chimeric antibody (ratio to chimeric antibody) stood at 1.2.

B10: humanized 1A8 antibody VH2/Vκ3 (antibody, IgG1, V domains shown)
VH: B1 VH with F4L, P9A, L11V, H41S, A84S, R85S, S91T, S121L
VL: B1 VL with L4M, N78K, H80S, P81R, E84A
B10: in assay [1], the EC50 relative to chimeric antibody (ratio to chimeric antibody) is 2.46. In the assay with biotinylated αvβ6, the IC50 relative to chimeric antibody (ratio to chimeric antibody) came out at 0.98.

B11: humanized 1A8 antibody VH1/Vκ3 (antibody, IgG1, V domains shown)
VH: B1 VH
VL: B1 VL with L4M, N78K, H80S, P81R, E84A
As to B11, in assay [1], the EC50 relative to chimeric antibody (ratio to chimeric antibody) was determined as 1.04. The IC50 relative to chimeric antibody (ratio to chimeric antibody) with biotinylated αvβ6 is 1.05.
